Measurements published in US20050070470A1 (ADMINISTRATORS OF THE TULANE EDUCATIONAL FUND, published 2005).
Bridges are numbered along the chain shown (N, C = ends). Where no end group is shown, it is not given here. [ ]: non-standard residue; d: D form. The star is where a group is joined. DOTA = O=C(O)CN1CCN(CC(=O)O)CCN(CC(=O)*)CCN(CC(=O)O)CC1

B1: D-Ser-D-Ser-D-Ser-D-Ser-D-Ser-D-Ser-D-Ser-D-Ser-D-Ser-D-Ser-L-Lys-D-Tyr-D-Tyr-cyclo[L-Cys-L-Phe-D-Trp-L-Lys-L-Thr-L-Cys]-L-Thr-NH2 (peptide)
peptide: [dS][dS][dS][dS][dS][dS][dS][dS][dS][dS]K[dY][dY]CF[dW]KTCT-NH2
modifications: disulfide 14-19; N-terminus assumed
SMILES: C[C@@H](O)[C@H](NC(=O)[C@@H]1CSSC[C@H](NC(=O)[C@@H](Cc2ccc(O)cc2)NC(=O)[C@@H](Cc2ccc(O)cc2)NC(=O)[C@H](CCCCN)NC(=O)[C@@H](CO)NC(=O)[C@@H](CO)NC(=O)[C@@H](CO)NC(=O)[C@@H](CO)NC(=O)[C@@H](CO)NC(=O)[C@@H](CO)NC(=O)[C@@H](CO)NC(=O)[C@@H](CO)NC(=O)[C@@H](CO)NC(=O)[C@H](N)CO)C(=O)N[C@@H](Cc2ccccc2)C(=O)N[C@H](Cc2c[nH]c3ccccc23)C(=O)N[C@@H](CCCCN)C(=O)N[C@@H]([C@@H](C)O)C(=O)N1)C(N)=O
B2: D-Ser-D-Ser-D-Ser-D-Ser-D-Ser-L-Lys-D-Ser-D-Ser-cyclo[L-Cys-L-Phe-D-Trp-L-Lys-L-Thr-L-Cys]-L-Thr-NH2 (peptide)
peptide: [dS][dS][dS][dS][dS]K[dS][dS]CF[dW]KTCT-NH2
modifications: disulfide 9-14; N-terminus assumed
SMILES: C[C@@H](O)[C@H](NC(=O)[C@@H]1CSSC[C@H](NC(=O)[C@@H](CO)NC(=O)[C@@H](CO)NC(=O)[C@H](CCCCN)NC(=O)[C@@H](CO)NC(=O)[C@@H](CO)NC(=O)[C@@H](CO)NC(=O)[C@@H](CO)NC(=O)[C@H](N)CO)C(=O)N[C@@H](Cc2ccccc2)C(=O)N[C@H](Cc2c[nH]c3ccccc23)C(=O)N[C@@H](CCCCN)C(=O)N[C@@H]([C@@H](C)O)C(=O)N1)C(N)=O
B3: DOTA-D-Ser-D-Ser-D-Ser-D-Ser-D-Ser-D-Ser-D-Ser-D-Ser-D-Ser-D-Ser-L-Lys-D-Tyr-D-Tyr-cyclo[L-Cys-L-Phe-D-Trp-L-Lys-L-Thr-L-Cys]-L-Thr-NH2 (peptide)
peptide: {DOTA}-[dS][dS][dS][dS][dS][dS][dS][dS][dS][dS]K[dY][dY]CF[dW]KTCT-NH2
modifications: disulfide 14-19
SMILES: C[C@@H](O)[C@H](NC(=O)[C@@H]1CSSC[C@H](NC(=O)[C@@H](Cc2ccc(O)cc2)NC(=O)[C@@H](Cc2ccc(O)cc2)NC(=O)[C@H](CCCCN)NC(=O)[C@@H](CO)NC(=O)[C@@H](CO)NC(=O)[C@@H](CO)NC(=O)[C@@H](CO)NC(=O)[C@@H](CO)NC(=O)[C@@H](CO)NC(=O)[C@@H](CO)NC(=O)[C@@H](CO)NC(=O)[C@@H](CO)NC(=O)[C@@H](CO)NC(=O)CN2CCN(CC(=O)O)CCN(CC(=O)O)CCN(CC(=O)O)CC2)C(=O)N[C@@H](Cc2ccccc2)C(=O)N[C@H](Cc2c[nH]c3ccccc23)C(=O)N[C@@H](CCCCN)C(=O)N[C@@H]([C@@H](C)O)C(=O)N1)C(N)=O
B4: Acetyl-D-Ser-D-Ser-D-Ser-D-Ser-D-Ser-D-Ser-D-Ser-D-Ser-D-Ser-D-Ser-L-Lys-D-Tyr-D-Tyr-cyclo[L-Cys-L-Phe-D-Trp-L-Lys-L-Thr-L-Cys]-L-Thr-NH2 (peptide)
peptide: Ac-[dS][dS][dS][dS][dS][dS][dS][dS][dS][dS]K[dY][dY]CF[dW]KTCT-NH2
modifications: disulfide 14-19
SMILES: CC(=O)N[C@H](CO)C(=O)N[C@H](CO)C(=O)N[C@H](CO)C(=O)N[C@H](CO)C(=O)N[C@H](CO)C(=O)N[C@H](CO)C(=O)N[C@H](CO)C(=O)N[C@H](CO)C(=O)N[C@H](CO)C(=O)N[C@H](CO)C(=O)N[C@@H](CCCCN)C(=O)N[C@H](Cc1ccc(O)cc1)C(=O)N[C@H](Cc1ccc(O)cc1)C(=O)N[C@H]1CSSC[C@@H](C(=O)N[C@H](C(N)=O)[C@@H](C)O)NC(=O)[C@H]([C@@H](C)O)NC(=O)[C@H](CCCCN)NC(=O)[C@@H](Cc2c[nH]c3ccccc23)NC(=O)[C@H](Cc2ccccc2)NC1=O
B5: D-Ser-D-Ser-D-Ser-D-Ser-D-Ser-D-Ser-D-Ser-D-Ser-D-Ser-D-Ser-D-Ser-D-Ser-D-Ser-D-Ser-D-Ser-L-Lys-D-Tyr-D-Tyr-cyclo[L-Cys-L-Phe-D-Trp-L-Lys-L-Thr-L-Cys]-L-Thr-NH2 (peptide)
peptide: [dS][dS][dS][dS][dS][dS][dS][dS][dS][dS][dS][dS][dS][dS][dS]K[dY][dY]CF[dW]KTCT-NH2
modifications: disulfide 19-24; N-terminus assumed
SMILES: C[C@@H](O)[C@H](NC(=O)[C@@H]1CSSC[C@H](NC(=O)[C@@H](Cc2ccc(O)cc2)NC(=O)[C@@H](Cc2ccc(O)cc2)NC(=O)[C@H](CCCCN)NC(=O)[C@@H](CO)NC(=O)[C@@H](CO)NC(=O)[C@@H](CO)NC(=O)[C@@H](CO)NC(=O)[C@@H](CO)NC(=O)[C@@H](CO)NC(=O)[C@@H](CO)NC(=O)[C@@H](CO)NC(=O)[C@@H](CO)NC(=O)[C@@H](CO)NC(=O)[C@@H](CO)NC(=O)[C@@H](CO)NC(=O)[C@@H](CO)NC(=O)[C@@H](CO)NC(=O)[C@H](N)CO)C(=O)N[C@@H](Cc2ccccc2)C(=O)N[C@H](Cc2c[nH]c3ccccc23)C(=O)N[C@@H](CCCCN)C(=O)N[C@@H]([C@@H](C)O)C(=O)N1)C(N)=O

target: somatostatin subtype 2 rat receptor (rat, UniProt P30680 1-369); assay: cell-based or functional assay
Sequence (P30680 whole entry): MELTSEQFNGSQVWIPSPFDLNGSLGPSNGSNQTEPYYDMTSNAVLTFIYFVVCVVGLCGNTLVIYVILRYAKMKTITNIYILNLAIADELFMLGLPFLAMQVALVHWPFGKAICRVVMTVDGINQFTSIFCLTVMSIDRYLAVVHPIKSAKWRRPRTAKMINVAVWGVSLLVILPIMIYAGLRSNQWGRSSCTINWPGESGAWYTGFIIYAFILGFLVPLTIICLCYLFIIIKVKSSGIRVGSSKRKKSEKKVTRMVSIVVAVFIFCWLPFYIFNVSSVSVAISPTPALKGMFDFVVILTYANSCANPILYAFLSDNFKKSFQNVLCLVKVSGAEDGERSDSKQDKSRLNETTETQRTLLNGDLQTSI

In order of rising “IC50 (nM), inhibition of GH release from primary cultures of rat pituitary cells” value:
1. B1  0.12 nM
2. B5  0.32 nM
3. B4  0.57 nM
4. B3  0.71 nM
5. B2  3.29 nM
